Non-standard residues stand in square brackets, D forms with d. No end group written: not given here. Aib = CC(C)(N)C(=O)O
T1: lecithin:cholesterol acyltransferase (LCAT), purified from human plasma (human, UniProt P04180 25-440)
T1 sequence (looked up): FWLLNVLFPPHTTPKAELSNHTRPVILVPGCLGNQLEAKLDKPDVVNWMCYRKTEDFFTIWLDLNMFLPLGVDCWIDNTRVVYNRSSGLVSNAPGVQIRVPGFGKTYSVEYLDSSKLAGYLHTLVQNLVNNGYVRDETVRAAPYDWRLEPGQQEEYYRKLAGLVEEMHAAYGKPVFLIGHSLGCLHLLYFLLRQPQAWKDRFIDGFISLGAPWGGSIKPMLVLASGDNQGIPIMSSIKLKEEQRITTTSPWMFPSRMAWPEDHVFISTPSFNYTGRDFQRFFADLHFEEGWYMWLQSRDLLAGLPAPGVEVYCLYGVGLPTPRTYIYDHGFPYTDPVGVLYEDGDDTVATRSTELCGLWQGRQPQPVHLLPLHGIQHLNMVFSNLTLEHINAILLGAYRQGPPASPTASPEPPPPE

B1: peptide 68 (peptide)
peptide: PVLDEFRELLKE[Aib]LEALKQKLK
B2: peptide 66 (peptide)
peptide: PVLDLFRNLLEELLEALQKKLK
B3: peptide 92 (peptide)
peptide: PVLDEFRELYNE[Aib]LEALKQKLK
B4: peptide 74 (peptide)
peptide: PVLDKFREKLNE[Aib]LEALKQKLK
B5: peptide 102 (peptide)
peptide: PVLDLFRELLNL[Aib]LEALKEKLK
B6: peptide 9 (peptide)
peptide: PVLDLFRELGNELLEALKQKLK
B7: peptide 65 (peptide)
peptide: VLDEFREKLNE[Aib]LEALKQKLK
B8: peptide 87 (peptide)
peptide: [dP][dL][dL][dE][dL][dL][dK][dE][dL][dL][dQ][dE][dL][dL][dE][dA][dL][dK][dQ][dK][dL][dK]
B9: peptide 89 (peptide)
peptide: PVLDEFREKLNE[Aib]LWALKQKLK
B10: peptide 7 (peptide)
peptide: PVLDLFKELLNELLEALKQKLK
B11: peptide 72 (peptide)
peptide: PVLDLFRELLNE[Aib]LWALKQKLK
B12: peptide 61 (peptide)
peptide: PVLDEFRWKLNE[Aib]LEALKQKLK
B13: peptide 70 (peptide)
peptide: PVLDEFRELLYE[Aib]LEALKQKLK
B14: peptide 97 (peptide)
peptide: PVLDLFRELLNELLE
B15: peptide 98 (peptide)
peptide: PVLDLFRELLNEELEALKQKLK
B16: peptide 8 (peptide)
peptide: PVLDLFRELLNEGLEALKQKLK
B17: peptide 67 (peptide)
peptide: VLDLFRELLNELLEALKQKLK
B18: peptide 82 (peptide)
peptide: LDEFREKLNE[Aib]LEALKQKLK
B19: peptide 99 (peptide)
peptide: KLKQKLAELLENLLERFLDLVP
B20: peptide 101 (peptide)
peptide: PVLDLFRELLNW[Aib]LEALKQKLK
B21: peptide 85 (peptide)
peptide: PLDLFRELLNELLEALKQKLK
B22: peptide 62 (peptide)
peptide: PVLDEWREKLNE[Aib]LEALKQKLK
B23: peptide 91 (peptide)
peptide: PVLDEFRELLNE[Aib]LEALKQKLK
B24: peptide 84 (peptide)
peptide: PVLDEFREKLNELLEALKQKLK
B25: peptide 86 (peptide)
peptide: PVLELFERLLDELLNALQKKLK
B26: peptide 96 (peptide)
peptide: [dP][dV][dL][dD][dL][dF][dR][dE][dL][dL][dN][dE][Aib][dL][dE][dA][dL][dK][dQ][dK][dL][dK]
B27: peptide 88 (peptide)
peptide: PVLDKFRELLNE[Aib]LEALKQKLK
B28: peptide 80 (peptide)
peptide: PVLDLFERLLNELLEALQKKLK
B29: peptide 64 (peptide)
peptide: PWLDEFREKLNE[Aib]LEALKQKLK
B30: peptide 77 (peptide)
peptide: PVLDEFREKLNK[Aib]LEALKQKLK
B31: peptide 76 (peptide)
peptide: PVLDEFRELLFE[Aib]LEALKQKLK
B32: peptide 79 (peptide)
peptide: PVLDEFRELLNELLEALKQKLK
B33: peptide 95 (peptide)
peptide: PVLDLFRELLNL[Aib]LEALKQKLK
B34: peptide 71 (peptide)
peptide: PVLDEFREKLNEL[Aib]EALKQKLK
B35: peptide 75 (peptide)
peptide: PVLDEFREKLNEELEALKQKLK
B36: peptide 93 (peptide)
peptide: PVLDEFREKLNE[Aib]LKALKQKLK
B37: peptide 63 (peptide)
peptide: PVLDFFREKLNE[Aib]LEALKQKLK
B38: peptide 73 (peptide)
peptide: PVLDEFWEKLNE[Aib]LEALKQKLK
B39: peptide 100 (peptide)
peptide: [dP][dV][dL][dD][dL][dF][dR][dE][dL][dL][dN][dE][dL][dL][dE][dA][dL][dK][dQ][dK][dL][dK]
B40: peptide 94 (peptide)
peptide: PVLDEFREKLNEALEALKQKLK
B41: peptide 69 (peptide)
peptide: PVLDEFRKKLNE[Aib]LEALKQKLK
B42: peptide 90 (peptide)
peptide: DEFREKLNE[Aib]LEALKQKLK

target: T1, lecithin:cholesterol acyltransferase …; assay: cell-based or functional assay

| ACTIVITY (%) LCAT | Binder |
| --- | --- |
| 14% | B1 |
| 15% | B2 |
| 5% | B3 |
| 10% | B4 |
| 2% | B5 |
| 83% | B6 |
| 15% | B7 |
| 7% | B8 |
| 6% | B9 |
| 83% | B10 |
| 11% | B11 |
| 16% | B12 |
| 12% | B13 |
| 4% | B14 |
| 2% | B15 |
| 83% | B16 |
| 14% | B17 |
| 8% | B18 |
| 2% | B19 |
| 2% | B20 |
| 7% | B21 |

| ACTIVITY (%) LCAT | Binder |
| --- | --- |
| 16% | B22 |
| 6% | B23 |
| 7% | B24 |
| 7% | B25 |
| 5% | B26 |
| 7% | B27 |
| 9% | B28 |
| 15% | B29 |
| 9% | B30 |
| 9% | B31 |
| 9% | B32 |
| 5% | B33 |
| 11% | B34 |
| 10% | B35 |
| 5% | B36 |
| 16% | B37 |
| 10% | B38 |
| 2% | B39 |
| 5% | B40 |
| 13% | B41 |
| 6% | B42 |

— patent US20050080013A1 (Pfizer, published 2005)
